Results from patent US20230310634A1 (IMMUNEXT, published 2023).

T1: human VISTA (human, UniProt Q9H7M9 33-194, limits assumed)
T1 sequence: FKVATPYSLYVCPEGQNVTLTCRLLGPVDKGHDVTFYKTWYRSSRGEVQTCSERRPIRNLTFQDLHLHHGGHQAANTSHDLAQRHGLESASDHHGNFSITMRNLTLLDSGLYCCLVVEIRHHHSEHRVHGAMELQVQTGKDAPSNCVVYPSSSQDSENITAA

T2: hIX50 (human VISTA ECD) (human, UniProt Q9H7M9 33-194, biotinylated in the pH ELISA (sites not given); not biotinylated when coated on the plate)
T2 construct: also called soluble VISTA; biotinylated hIX50
T2 sequence: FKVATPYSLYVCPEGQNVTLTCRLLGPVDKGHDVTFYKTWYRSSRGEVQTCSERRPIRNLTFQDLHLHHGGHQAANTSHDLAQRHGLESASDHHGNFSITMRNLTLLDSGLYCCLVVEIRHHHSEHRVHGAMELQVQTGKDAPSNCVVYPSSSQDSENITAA

B1: VSTB66 (antibody, V domains shown)
VH: QVQLVQSGAEVKKPGASVKVSCKASGYPFTGYFMHWVRQAPGQGLEWMGRINPYNGGTVYNQNFNDRVTMTRDTSTSTVYMELSSLRSEDTAVYYCARWTFDGLFMDYWGQGTTVTVSS
VL: DVVMTQSPLSLPVTLGQPASISCRASENVDKYGISFMNWFQQRPGQSPRRLIYATSNQGSGVPDRFSGSGSGTDFTLKISRVEAEDVGVYYCQQSKEDPYTFGQGTKLEIK
B2: INX200 (antibody, V domains shown)
VH: QVQLVQSGAEVKKPGASVKVSCKASGYTFANYLIGWVRQAPGQRLEWMGDIYPGGGFISYNEKFKGRVTITRDTSASTAYMELSSLRSEDTAVYYCARRFDYGGYFFDYWGQGTLVTVSS
VL: DIVMTQSPLSLPVTPGEPASISCRSSQSIVHSNGNIYLEWYLQKPGQSPQLLIYKVSNRFSGVPDRFSGSGSGTDFTLKISRVEAEDVGVYYCFQGSHVPWTFGQGTKLEIK
modifications: Alexa Fluor 488 label in the flow-cytometry results (p-1139); unlabelled in the ELISAs
B3: VSTB92 (antibody, V domains shown)
VH: QVQLVQSGAEVKKPGASVKVSCKASGYTFANYLIGWVRQAPGQRLEWMGDIYPGGGFISYNEKFKGRVTITRDTSASTAYMELSSLRSEDTAVYYCARRFDYGGYFFDYWGQGTLVTVSS
VL: DIVMTQSPLSLPVTPGEPASISCRSSQSIVHSNGNIYLEWYLQKPGQSPQLLIYKVSNRFSGVPDRFSGSGSGTDFTLKISRVEAEDVGVYYCFQGSHVPWTFGQGTKLEIK
B4: INX200A (other)
VH: QVQLVQSGAEVKKPGASVKVSCKASGYTFANYLIGWVRQAPGQRLEWMGDIYPGGGFISYNEKFKGRVTITRDTSASTAYMELSSLRSEDTAVYYCARRFDYGGYFFDYWGQGTLVTVSS
VL: DIVMTQSPLSLPVTPGEPASISCRSSQSIVHSNGNIYLEWYLQKPGQSPQLLIYKVSNRFSGVPDRFSGSGSGTDFTLKISRVEAEDVGVYYCFQGSHVPWTFGQGTKLEIK
modifications: Linker/payload A (esterase sensitive linker with dexamethasone) on the reduced interchain disulfide cysteines, DAR about 8; these cysteines lie in the constant regions, which are not given here.
B5: VSTB103 (antibody, V domains shown)
VH: EVQLVQSGAEVKKPGESLKISCKGSGYSFTSYWIGWVRQMPGKGLEWMGIIYPGDSDTRYSPSFQGQVTISADKSISTAYLQWSSLKASDTAMYYCARDDALYGGYYLDYWGQGTLVTVSS
VL: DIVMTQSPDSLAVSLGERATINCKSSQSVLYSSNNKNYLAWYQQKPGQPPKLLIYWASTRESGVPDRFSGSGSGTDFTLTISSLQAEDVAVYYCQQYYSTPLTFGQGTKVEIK
B6: VSTB56 (antibody, V domains shown)
VH: QVQLVQSGAEVKKPGASVKVSCKASGYTFTSYWLHWVRQAPGQGLEWMGYIIPNTLHTDYNQKFKDRVTMTRDTSTSTVYMELSSLRSEDTAVYYCARLDGDYDYALDYWGQGTLVTVSS
VL: DIVMTQTPLSLSVTPGQPASISCRASESVEYYGTSFMQWYLQKPGQPPQLLIYTASNVESGVPDRFSGSGSGTDFTLKISRVEAEDVGVYYCQQSRKVPYTFGQGTKLEIK

Experiments:
human VISTA = molecular target: T1, human VISTA; assay: SPR on a ProteOn instrument; format of antibody and antigen not stated
hIX50 (human VISTA ECD) [1] = molecular target: T2, hIX50 (human VISTA ECD); assay: ELISA: hIX50 coated at 1 ug/mL, antibody titrated, mouse anti-human kappa-HRP/TMB, OD450
hIX50 (human VISTA ECD) [2] = molecular target: T2, hIX50 (human VISTA ECD); assay: ELISA: INX200 coated at 1 ug/mL, biotinylated hIX50 titrated at pH 7.5, streptavidin-HRP/TMB; the concentration is that of hIX50
hIX50 (human VISTA ECD) [3] = molecular target: T2, hIX50 (human VISTA ECD); assay: ELISA: hIX50 coated at 1 ug/mL, conjugate titrated, mouse anti-human kappa-HRP/TMB, OD450

Binder | Kd (human VISTA) | also measured
B1 | 80 pM | 
B2 |  | EC50 (read off the curve) (hIX50 (human VISTA ECD) [1]): ~8 ng/mL; EC50 (read off the curve) (hIX50 (human VISTA ECD) [2]): ~0.7 ng/mL
B3 | 90 pM | 
B4 |  | EC50 (read off the curve) (hIX50 (human VISTA ECD) [3]): ~10 ng/mL
B5 | 640 pM | 
B6 | 20 pM | 
